The target in this experiment is HLA-A*0201. Description: T2 stabilization assay (BB7.2 anti-HLA-A2 staining). As to conditions: peptide-pulsed T2 cells; parent: est. 100; read off a plot.
Turning to wild type p53 65-73 peptide (…) A5G, the percent of parent was 100%.

Take wild type p53 65-73 peptide (…) A6G: the percent of parent was found to be 68%.

Regarding wild type p53 65-73 peptide (…) E4A, the percent of parent is 76%.

Consider wild type p53 65-73 peptide (…) E4G, for which the percent of parent came to 100%.

For wild type p53 65-73 peptide (…) M2A, the percent of parent came out at 89%.

wild type p53 65-73 peptide (…) M2G: the percent of parent turned out to be 89%.

In the case of wild type p53 65-73 peptide (…) P3A, the percent of parent amounted to 61%.

For wild type p53 65-73 peptide (…) P3G, the percent of parent turned out to be 65%.

In the case of wild type p53 65-73 peptide (…) P7A, the percent of parent came out at 84%.

Consider wild type p53 65-73 peptide (…) P7G, for which the percent of parent came out at 47%.

wild type p53 65-73 peptide (…) P8A: the percent of parent turned out to be 89%.

Regarding wild type p53 65-73 peptide (…) P8G, the percent of parent amounted to 72%.

On to wild type p53 65-73 peptide (…) R1A, for which the percent of parent was 120%.

As for wild type p53 65-73 peptide (…) R1G, the percent of parent worked out at 100%.

For the substance wild type p53 65-73 peptide (…) V9A, the percent of parent was determined as 110%.

As for wild type p53 65-73 peptide (…) V9G, the percent of parent is 67%.

For the origin of these results see publication PMC8034716.
